Assay results taken from article PMC4191604 (Journal of Medicinal Chemistry, 2014).
Substitutions are numbered along the chain they refer to.

Tests used:
Experiment in all cases: SPR
[1] = biological target: T1, GBP1 mutant Q72A (human, UniProt P32455 1-592, Q72A)
T1 sequence (looked up): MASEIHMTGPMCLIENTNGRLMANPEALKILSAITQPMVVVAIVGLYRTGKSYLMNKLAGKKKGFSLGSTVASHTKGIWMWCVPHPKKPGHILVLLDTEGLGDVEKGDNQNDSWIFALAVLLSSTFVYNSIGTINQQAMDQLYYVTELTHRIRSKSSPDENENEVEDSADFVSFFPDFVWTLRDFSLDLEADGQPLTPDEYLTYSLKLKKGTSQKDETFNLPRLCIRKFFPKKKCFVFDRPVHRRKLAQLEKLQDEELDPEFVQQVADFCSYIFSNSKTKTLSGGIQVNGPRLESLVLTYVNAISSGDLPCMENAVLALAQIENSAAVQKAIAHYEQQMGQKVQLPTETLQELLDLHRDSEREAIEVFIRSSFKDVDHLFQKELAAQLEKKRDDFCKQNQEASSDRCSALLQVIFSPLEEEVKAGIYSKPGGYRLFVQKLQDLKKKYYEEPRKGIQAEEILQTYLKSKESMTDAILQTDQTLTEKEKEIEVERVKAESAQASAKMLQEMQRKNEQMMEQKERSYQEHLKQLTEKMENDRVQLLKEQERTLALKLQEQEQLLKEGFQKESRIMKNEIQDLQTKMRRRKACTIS

[2] = biological target: T2, GBP1 mutant R227A/K228A (human, UniProt P32455 1-592, R227A | K228A)
T2 sequence (looked up): T1 sequence (looked up) with A72Q, R227A, K228A

[3] = biological target: T3, GBP1 mutant D184A (human, UniProt P32455 1-592, D184A)
T3 sequence (looked up): T1 sequence (looked up) with A72Q, D184A

[4] = biological target: T4, GBP1 mutant R227E/K228E (human, UniProt P32455 1-592, R227E | K228E)
T4 sequence (looked up): T1 sequence (looked up) with A72Q, R227E, K228E

Kd [1]: 62 ± 2 nM
Kd [2]: 137 ± 14 nM
Kd [3]: 80 ± 5 nM
Kd [4]: > 10000 nM
B1: PIM1 (recombinant) (enzyme)
chain: not shown
